Tests used:
Assay type in all cases: cell-based, human
MNK45 = experiment: ADCC activity, chromium-51 release; conditions: gastric cancer cell line
Method: (§1) The above-selected anti-CAPRIN-1 monoclonal antibodies #1 to #11 were evaluated for their cytotoxic activities against cancer cells (ADCC activity). Hybridomas producing the monoclonal antibodies #1 to #11 were each cultured using hybridoma SFM medium (Invitrogen). The thus obtained supernatant was purified using Hitrap ProteinA Sepharose FF (GE HealthCare), replaced with PBS(−), and then filtered through 0.22 μm filter (Millipore). The obtained filtrates were used as antibodies for assay. The human breast cancer cell line MDA-MB-157 (10^6 cells) was collected in a 50-ml centrifuge tube, to which 100 μCi chromium(Cr)-51 was then added, and incubated at 37° C. for 2 hours. Subsequently, the cells were washed 3 times with RPMI1640 medium containing 10% FBS, and then dispensed into each well of a 96-well V-bottom plate at 10^3 cells per well. The thus obtained cells are used as target cell. The above purified antibodies (1 μg each) were added to the cells. Separately, mouse lymphocytes separated from the mouse spleen were further added (2×10^5 cells) and then cultured under conditions of 37° C. and 5% CO2 for 4 hours. After culture, the amount of chromium(Cr)-51 released from cytotoxically impaired tumor cells in a culture supernatant was measured, so that the ADCC activity of each anti-CAPRIN-1 antibody against cancer cells was calculated. […] On the other hand, similar procedures were performed using the monoclonal antibodies (which were prepared in Example 2) reactive with the CAPRIN-1 protein itself, but not reactive with the surface of cancer cells, no cytotoxic activity was observed (see FIG. 1). […] Similarly, the anti-CAPRIN-1 antibodies were examined for ADCC activity against other human cancer cell lines including glioma cell lines (T98G and U373), lung cancer cell lines (A549 and QG56), renal cancer cell lines (Caki-1 and ACHN), a uterine cervix cancer cell line (SW756), a bladder cancer cell line (T24), an esophageal cancer cell line (KYSE180), gastric cancer cell lines (MNK28 and MNK45), a colorectal cancer cell line (SW480), a leukemia cell line (AML5), and a lymphoma cell line (Ramos).

KYSE180 = experiment: ADCC activity, chromium-51 release; conditions: esophageal cancer cell line
Method: as §1

SW756 = experiment: ADCC activity, chromium-51 release; conditions: uterine cervix cancer cell line
Method: as §1

A549 = experiment: ADCC activity, chromium-51 release; conditions: lung cancer cell line
Method: as §1

ACHN = experiment: ADCC activity, chromium-51 release; conditions: renal cancer cell line
Method: as §1

U373 = experiment: ADCC activity, chromium-51 release; conditions: glioma cell line
Method: as §1

T98G = experiment: ADCC activity, chromium-51 release; conditions: glioma cell line
Method: as §1

Caki-1 = experiment: ADCC activity, chromium-51 release; conditions: renal cancer cell line
Method: as §1

CAPRIN-1 protein = experiment: Flow cytometry: expression of CAPRIN-1 protein on the cell surface of MCF-7 treated with antitumor agents; conditions: 1 μg antibody
Method: The cancer cell line MCF-7 was treated with each antitumor agent at a 50% inhibitory concentration which was calculated in (1) above, and the expression behavior of a CAPRIN-1 protein on the cell surface was examined.
The expression behavior of the CAPRIN-1 protein on the surface of the above-treated MCF-7 human breast cancer cell was examined. The cell was prepared to a concentration of 1×10^5 cells/ml, and then cultured on a 6-well plate under conditions of 37° C. and 5% CO2 for 1 day. Next, the cell was treated with antitumor agents at the 50% inhibitory concentration calculated in (1) above, or with PBS(−) as a control, and then cultured under conditions of 37° C. and 5% CO2 for 2 days. […] After washing with PBS, fluorescence intensity was measured using a FACS caliber (Becton, Dickinson and Company). […] As a result, no significant difference in fluorescence intensity was observed regardless of treatment with an antitumor agent. Specifically, the fluorescence intensity obtained in the case of adding the anti-CAPRIN-1 antibody to MCF-7 not treated with any antitumor agent indicated 32% higher enhancement when compared with that in the case of adding the control antibody. […] Here, the percentage of enhancement in fluorescence intensity was represented by the percentage of increase in mean fluorescence intensity (MFI level) in each cell and calculated by the following formula. […]

B1: monoclonal antibody #9: mouse anti-CAPRIN-1 monoclonal antibody; heavy chain variable region SEQ ID NO: 103, light chain variable region SEQ ID NO: 107 (antibody, listed as Mus musculus, V domains shown)
VH: PRASLGVSETLLCTSGFTFTDYYMSWVRQPPGKALEWLGFIRNKANGYTTEYSASVKGRFTISRDNSQSILYLQMNTLRAEDSATYYCARANWAFDYWGQGTTVTVSSK
VL: SGDRVSLSCRASQSISNYLHWYQQKSHESPRLLIKYASQSISGIPSRFSGSGSGTDFTLSINSVETEDFGMYFCQQSNSWPYTFGGGTKLEIKQ
MNK45
  ADCC activity against MNK45: ≥ 10%
KYSE180
  ADCC activity against KYSE180: ≥ 22%
SW756
  ADCC activity against SW756: ≥ 16%
A549
  ADCC activity against A549: ≥ 24%
ACHN
  ADCC activity against ACHN: ≥ 14%
U373
  ADCC activity against U373: ≥ 16%
T98G
  ADCC activity against T98G: ≥ 12%
Caki-1
  ADCC activity against Caki-L: ≥ 23%
CAPRIN-1 protein; MCF-7 not treated with any antitumor agent
  percentage of enhancement in fluorescence intensity versus control antibody: 32%
CAPRIN-1 protein; MCF-7 treated with the antitumor agent at 50% inhibitory concentration for 2 days
  percentage of enhancement in fluorescence intensity versus control antibody: 32%
